From patent publication US20250026851A1 (AKAMIS BIO, published 2025)

Key:
[1] = target: Human FAP (fibroblast activation protein) on cells (human, UniProt Q12884 1-760); assay: cell-based or functional assay
Human EpCAM on cells = target: T1, Human EpCAM on cells (human, UniProt P16422 24-314); assay: cell-based or functional assay
T1 sequence: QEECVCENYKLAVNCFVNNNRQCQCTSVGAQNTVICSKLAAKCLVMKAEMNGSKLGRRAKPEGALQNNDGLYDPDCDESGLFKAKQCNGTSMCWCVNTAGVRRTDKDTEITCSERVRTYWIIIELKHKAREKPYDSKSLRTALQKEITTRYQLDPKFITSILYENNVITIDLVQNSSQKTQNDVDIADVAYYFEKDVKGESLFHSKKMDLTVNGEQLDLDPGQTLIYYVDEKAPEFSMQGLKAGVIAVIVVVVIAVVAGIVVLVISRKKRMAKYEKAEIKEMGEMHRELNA

[2] = target: T2, human EpCAM/TROP-1 protein (Sino Biological Inc, #10694-H02H-50) (human, UniProt P16422 24-265); assay: ELISA on plate-coated human EpCAM/TROP-1 (50 ng/well), anti-His detection, A450
T2 construct: also called recombinant EpCAM protein; recombinant EpCAM
T2 sequence (looked up): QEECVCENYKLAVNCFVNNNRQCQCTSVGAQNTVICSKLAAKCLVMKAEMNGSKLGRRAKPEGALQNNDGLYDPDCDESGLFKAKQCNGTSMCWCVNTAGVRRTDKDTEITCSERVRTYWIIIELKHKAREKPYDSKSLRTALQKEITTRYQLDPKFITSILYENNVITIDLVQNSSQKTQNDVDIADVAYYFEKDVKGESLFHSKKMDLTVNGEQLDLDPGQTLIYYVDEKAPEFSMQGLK

[3] = target: T3, human FAP/seprase protein (Sino Biological Inc, 10464-H07H-10) (human, UniProt Q12884 26-760); assay: ELISA on plate-coated human FAP/seprase (100 ng/well), anti-His detection, A450
T3 construct: also called recombinant FAP protein; FAP protein

B1: FAP bispecific T-cell activator (anti-FAP scFv x anti-CD3 scFv, with N-terminal signal sequence and C-terminal deca-His affinity tag) (bispecific antibody)
chain: DIVMTQSPDSLAVSLGERATINCKSSQSLLYSRNQKNYLAWYQQKPGQPPKLLIFWASTRESGVPDRFSGSGFGTDFTLTISSLQAEDVAVYYCQQYFSYPLTFGQGTKVEIKGGGGSGGGGSGGGGSQVQLVQSGAEVKKPGASVKVSCKTSRYTFTEYTIHWVRQAPGQRLEWIGGINPNNGIPNYNQKFKGRVTITVDTSASTAYMELSSLRSEDTAVYYCARRRIAYGYDEGHAMDYWGQGTLVTVSSGGGGSDVQLVQSGAEVKKPGASVKVSCKASGYTFTRYTMHWVRQAPGQGLEWIGYINPSRGYTNYADSVKGRFTITTDKSTSTAYMELSSLRSEDTATYYCARYYDDHYCLDYWGQGTTVTVSSGEGTSTGSGGSGGSGGADDIVLTQSPATLSLSPGERATLSCRASQSVSYMNWYQQKPGKAPKRWIYDTSKVASGVPARFSGSGSGTDYSLTINSLEAEDAATYYCQQWSSNPLTFGGGTKVEIKHHHHHHHHHH
- EC50 of T cell-mediated lysis of NHDF cells (LDH assay, 24 h, 8,000 NHDF with 40,000 T-cells) [1]: 3.2 ng/mL
- EC50 of fibroblast (NHDF) lysis by LDH release after 24 h co-culture with PBMC T-cells [1]: ~2.5 ng/mL

B2: EpCAM bispecific T-cell activator (anti-EpCAM scFv x anti-CD3 scFv, with N-terminal signal sequence and C-terminal deca-His affinity tag) (bispecific antibody)
chain: ELVMTQSPSSLTVTAGEKVTMSCKSSQSLLNSGNQKNYLTWYQQKPGQPPKLLIYWASTRESGVPDRFTGSGSGTDFTLTISSVQAEDLAVYYCQNDYSYPLTFGAGTKLEIKGGGGSGGGGSGGGGSEVQLLEQSGAELVRPGTSVKISCKASGYAFTNYWLGWVKQRPGHGLEWIGDIFPGSGNIHYNEKFKGKATLTADKSSSTAYMQLSSLTFEDSAVYFCARLRNWDEPMDYWGQGTTVTVSSGGGGSDVQLVQSGAEVKKPGASVKVSCKASGYTFTRYTMHWVRQAPGQGLEWIGYINPSRGYTNYADSVKGRFTITTDKSTSTAYMELSSLRSEDTATYYCARYYDDHYCLDYWGQGTTVTVSSGEGTSTGSGGSGGSGGADDIVLTQSPATLSLSPGERATLSCRASQSVSYMNWYQQKPGKAPKRWIYDTSKVASGVPARFSGSGSGTDYSLTINSLEAEDAATYYCQQWSSNPLTFGGGTKVEIKHHHHHHHHHH
- EC50 of T cell-mediated lysis of DLD cells (LDH assay, 24 h, 8,000 DLD with 40,000 T-cells) (Human EpCAM on cells): 7.4 ng/mL

B3: Control (Anti-FHA) bispecific T-cell activator (anti-FHA scFv x anti-CD3 scFv, with N-terminal signal sequence and C-terminal deca-His affinity tag) (bispecific antibody)
chain: ELDIVMTQAPASLAVSLGQRATISCRASKSVSSSGYNYLHWYQQKPGQPPKLLIYLASNLESGVPARFSGSGSGTDFTLNIHPVEEEDAATYYCQHSREFPLTFGAGTKLEIKSSGGGGSGGGGGGSSRSSLEVQLQQSGPELVKPGASVKISCKTSGYTFTGYTMHWVRQSHGKSLEWIGGINPKNGGIIYNQKFQGKATLTVDKSSSTASMELRSLTSDDSAVYYCARRVYDDYPYYYAMDYWGQGTSVTVSSAKTTPPSVTSGGGGSDVQLVQSGAEVKKPGASVKVSCKASGYTFTRYTMHWVRQAPGQGLEWIGYINPSRGYTNYADSVKGRFTITTDKSTSTAYMELSSLRSEDTATYYCARYYDDHYCLDYWGQGTTVTVSSGEGTSTGSGGSGGSGGADDIVLTQSPATLSLSPGERATLSCRASQSVSYMNWYQQKPGKAPKRWIYDTSKVASGVPARFSGSGSGTDYSLTINSLEAEDAATYYCQQWSSNPLTFGGGTKVEIKHHHHHHHHHH
- binding result [2]: no binding (tested: supernatant protein diluted 10-fold)
- binding result [3]: no binding (tested: supernatant protein diluted 10-fold)
